# T1: Sea3 (S. cerevisiae (endogenous in yeast …, UniProt Q03897 1-1148))
# T1 construct: Sea3, S. cerevisiae, endogenous subunit of the SEAC; Sea3^SIP (Sea3^Nter) lies in the wing, Sea3^SAP (Sea3^Cter) in the core; Native protein of the purified complex; two copies in the SEAC; source: endogenous, yeast cells expressing Sea4-TAP; in lysate and co-purified with Sea4-TAP (IgG Dynabeads, TEV elution)
# T1 sequence (looked up): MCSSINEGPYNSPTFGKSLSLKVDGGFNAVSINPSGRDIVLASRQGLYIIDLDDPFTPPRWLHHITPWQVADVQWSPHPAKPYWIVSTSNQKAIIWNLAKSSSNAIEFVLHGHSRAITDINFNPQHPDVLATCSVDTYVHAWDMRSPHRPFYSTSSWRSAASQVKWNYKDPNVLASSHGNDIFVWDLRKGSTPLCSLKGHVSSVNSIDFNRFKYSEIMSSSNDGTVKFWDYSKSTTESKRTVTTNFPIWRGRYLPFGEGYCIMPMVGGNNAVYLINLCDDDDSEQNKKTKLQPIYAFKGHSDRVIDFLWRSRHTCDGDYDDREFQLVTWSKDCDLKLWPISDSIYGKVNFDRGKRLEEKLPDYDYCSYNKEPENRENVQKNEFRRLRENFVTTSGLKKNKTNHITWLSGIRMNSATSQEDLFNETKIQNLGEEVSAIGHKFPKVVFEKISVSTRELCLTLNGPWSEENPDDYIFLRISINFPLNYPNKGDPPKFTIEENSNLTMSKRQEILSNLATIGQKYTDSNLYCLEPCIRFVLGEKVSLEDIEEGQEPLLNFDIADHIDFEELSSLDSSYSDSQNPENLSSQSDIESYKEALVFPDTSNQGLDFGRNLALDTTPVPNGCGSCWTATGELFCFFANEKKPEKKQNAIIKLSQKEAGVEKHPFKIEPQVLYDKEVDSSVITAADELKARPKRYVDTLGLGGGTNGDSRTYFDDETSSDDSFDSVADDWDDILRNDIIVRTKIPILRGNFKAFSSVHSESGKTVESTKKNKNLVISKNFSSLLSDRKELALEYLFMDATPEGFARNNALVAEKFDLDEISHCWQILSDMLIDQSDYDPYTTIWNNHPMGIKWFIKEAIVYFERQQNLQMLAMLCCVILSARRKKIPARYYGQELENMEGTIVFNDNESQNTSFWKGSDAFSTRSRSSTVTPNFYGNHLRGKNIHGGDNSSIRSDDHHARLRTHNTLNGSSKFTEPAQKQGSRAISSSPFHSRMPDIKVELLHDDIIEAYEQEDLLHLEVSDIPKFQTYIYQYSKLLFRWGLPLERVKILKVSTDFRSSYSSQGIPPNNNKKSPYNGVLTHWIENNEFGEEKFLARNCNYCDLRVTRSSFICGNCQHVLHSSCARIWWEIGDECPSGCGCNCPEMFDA
# T2: Sea2 (S. cerevisiae (endogenous in yeast …, UniProt Q08281 1-1341))
# T2 construct: Sea2, S. cerevisiae, endogenous subunit of the SEAC (SEACAT, core); Native protein of the purified complex; two copies in the SEAC; source: endogenous, yeast cells expressing Sea4-TAP; in lysate and co-purified with Sea4-TAP (IgG Dynabeads, TEV elution)
# T2 sequence (looked up): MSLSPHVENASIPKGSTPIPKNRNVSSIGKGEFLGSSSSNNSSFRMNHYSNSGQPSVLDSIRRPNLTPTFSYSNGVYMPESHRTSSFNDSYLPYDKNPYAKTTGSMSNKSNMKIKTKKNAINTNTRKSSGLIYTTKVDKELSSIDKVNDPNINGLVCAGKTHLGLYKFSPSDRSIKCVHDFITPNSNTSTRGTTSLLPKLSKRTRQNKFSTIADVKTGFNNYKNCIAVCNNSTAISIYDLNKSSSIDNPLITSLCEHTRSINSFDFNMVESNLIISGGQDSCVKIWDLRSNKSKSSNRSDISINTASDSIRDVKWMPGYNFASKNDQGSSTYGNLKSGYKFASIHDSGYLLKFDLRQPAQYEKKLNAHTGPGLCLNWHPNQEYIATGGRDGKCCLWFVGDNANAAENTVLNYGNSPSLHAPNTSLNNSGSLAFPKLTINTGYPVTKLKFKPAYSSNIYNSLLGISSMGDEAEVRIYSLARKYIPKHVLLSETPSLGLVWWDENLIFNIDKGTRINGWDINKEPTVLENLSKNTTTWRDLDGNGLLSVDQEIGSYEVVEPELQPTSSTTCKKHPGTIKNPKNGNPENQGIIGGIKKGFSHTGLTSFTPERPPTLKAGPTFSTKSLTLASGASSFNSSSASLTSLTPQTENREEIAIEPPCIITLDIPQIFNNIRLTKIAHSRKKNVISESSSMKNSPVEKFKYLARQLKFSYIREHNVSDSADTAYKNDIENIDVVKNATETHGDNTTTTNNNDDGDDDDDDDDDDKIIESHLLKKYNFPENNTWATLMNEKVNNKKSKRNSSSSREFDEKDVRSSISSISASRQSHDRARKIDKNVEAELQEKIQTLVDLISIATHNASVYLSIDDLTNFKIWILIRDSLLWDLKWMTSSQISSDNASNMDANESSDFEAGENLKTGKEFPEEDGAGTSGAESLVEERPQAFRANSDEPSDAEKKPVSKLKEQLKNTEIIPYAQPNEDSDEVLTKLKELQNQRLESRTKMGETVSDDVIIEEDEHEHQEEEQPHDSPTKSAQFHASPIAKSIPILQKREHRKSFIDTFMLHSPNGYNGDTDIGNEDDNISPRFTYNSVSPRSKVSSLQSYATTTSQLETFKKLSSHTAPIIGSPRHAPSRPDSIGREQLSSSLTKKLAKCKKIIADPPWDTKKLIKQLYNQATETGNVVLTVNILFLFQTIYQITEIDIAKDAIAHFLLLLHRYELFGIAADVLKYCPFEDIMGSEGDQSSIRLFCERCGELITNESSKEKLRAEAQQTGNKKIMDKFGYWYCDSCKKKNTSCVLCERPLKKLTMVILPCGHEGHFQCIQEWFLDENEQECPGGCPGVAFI
# B1: Sea4-TAP (natural protein, UniProt P38164 1-1038, looked up)
# chain: MGLIKKVTHWSYDNLIDYLSVNPTRDEVTHYKVDPENESDESIIKLHTVKDFGSITCLDYSESEIGMIGVGEKNGYLRIFNISGQNSSSPASHAPVGLNANNETSMTNASGGKAAQAENIVGSVSNLKDTQGYPVSETNYDIRVRAKKQRCINSLGINTNGLIAMGLDRNKHDSSLQIWDMNYHDDSHETINPMFSYCTNESIVSLKFLNDTSVLAASTKFLKEIDVRSPNPIYQHPTRLTYDIKLNPFNDWQFSTYGDDGTLAIWDRRKLSDQASLGDLNVASPLLTFEKLVGSGAASRKYMNSCFRWSCVRNNEFATLHRGDTIKRWRLGYYCDSNRDIAADDDNEMNIENLFVSSVHDTNTMYDRVATFDYIPRSNNGTSLICMRQSGTIYRMPISEVCSKAILNNRNSLLLSNFENTEIDEIRVNNEHEKSNLENVKTILKNLSFEDLDVSEDYFPSGHDEPNNEIEYSELSEEENEGSNDVLDSKRGFELFWKPEKLLEKDISVIMRTRASLGYGLDPMNTVEMIDSSKNLQNNAYIRNTWRWIAIAKASVDDGTMVSGDLDLGYEGVIGIWNGINGISNQDRYRQETILSDKQLNKEMEKIIKLRRKNRDRNSPIANAAGSPKYVQRRLCLIISGWDLSRSDYEDKYNIIMKNGHYEKAAAWAVFFGDIPKAVEILGSAKKERLRLIATAIAGYLAYKDLPGNNAWRQQCRKMSSELDDPYLRVIFAFIADNDWWDILYEPAISLRERLGVALRFLNDTDLTTFLDRTSSTVIENGELEGLILTGITPNGIDLLQSYVNKTSDVQSAALISIFGSPRYFRDQRVDEWIQTYRDMLKSWELFSMRARFDVLRSKLSRTKTGVLTADIKPRQIYIQCQNCKQNINTPRTSSPSSAVSTSAGNYKNGEAYRRNNADYKKFNTGSSEAQAADEKPRHKYCCPHCGSSFPRCAICLMPLGTSNLPFVINGTQSRDPMQTEDSQDGANRELVSRKLKLNEWFSFCLSCNHGMHAGHAEEWFDRHNVCPTPGCTCQCNK
# notes: Sea4, S. cerevisiae, endogenous subunit of the SEAC (SEACAT, core), TAP-tagged; Captured by the TAP tag on IgG beads; the complex was released with TEV protease before SDS-PAGE and cryo-EM; Written 'Sea4-TAP'; Four copies in the SEAC; source: endogenous, yeast cells expressing Sea4-TAP; in lysate, purified on IgG-coupled Dynabeads and eluted with TEV protease
# What was measured:
# Sea3 = target: T1, Sea3; assay: co-IP; Sea4-TAP captured from cleared yeast lysate on IgG-coupled Dynabeads, washed, eluted with TEV protease, Coomassie-stained SDS-PAGE; 4 °C, 20 mM HEPES-NaOH pH 7.4, 300 mM NaCl, 5 mM CHAPS, 10% glycerol; wild-type, ΔNpr3, Npr2^R84A and Sea1^R943A strains; conditions: partners not purified
# Sea2 = target: T2, Sea2; assay: as above; conditions: partners not purified
binder,measurement,setting,value
B1,binding result,Sea3,binds
same,binding result,Sea2,binds

# — publication PMC9646525, “Cryo-EM structure of the SEA complex” (Nature, 2022)
